These results are taken from PMC10263302.

This experiment addresses Complex IV (cytochrome c oxidase complex) of T. gondii (Toxoplasma gondii | Toxoplasma gondii (endogenous in the parasites)). Kind of experiment: native gel or EMSA.

Consider cFLAG-TgApiCox13^H49Q (natural protein), for which the reduction of the abundance of the complex against the cWT-containing complex (no ATc) stood at 75%.

cFLAG-TgApiCox13^H85Q (natural protein) showed a reduction of the abundance of the complex against the cWT-containing complex (no ATc) of 45%.
